Assay results reported in patent US20180009892A1 (EUREKA THERAPEUTICS, published 2018).
Where a chain is given by its changes, count along the chain named.

B1: P601-130 (scFv, V domains shown)
VH: EVQLVETGGGLVKPGGSLRLSCEASGFSLSSYSMNWVRQAPGKGLEWVSSISSSSTHIYYADSLKGRFTISRDNAKNSLFLQMDNLRAEDTAVYYCARATIGFDYWGQGTLVTVSS
VL: QSVLTQPPSVSGAPGQRVTISCTGSSSNIGAGYDVHWYQQLPGTAPKLLIYGNSNRPSGVPDRFSGSKSGTSASLAITGLQAEDEADYYCQSYDSSLSGYVFGTGTKLTVL
B2: P601-65 (scFv, V domains shown)
VH: QVQLQQSGPGLVKPSQTLSLTCAISGDSVSSNSATWNWIRQSPSRGLEWLGRTYYRSKWYNDYAVSVKSRIIINPDTSKNQFSLQLNSVTPEDTAVYYCARGVRAFDIWGQGTTVTVSS
VL: QSVLTQPPSVSGTPGQRVTIFCSGGSNNIGRSSVYWYRQAAGTAPKLLIYKTDQRPSGVPDRFAASKSGASASLAISGLRSEDEADYHCATWDDSLSAVVFGGGTKLTVL
B3: P601-40 (scFv, V domains shown)
VH: QVQLQQSGAEVKKPGASVKVSCKASGYTSTNYGISWVRQAPGQGLEWMGWISTYNGNTNYAQKLQGRVTMTTDTSTSTAYMELRSLRSDDTAVYYCARDYYSDSSGYWDDAFDIWGQGTMVTVSS
VL: DIQLTQSPSSLSASVGDRVTITCRASQNINNYLNWYQQKPGKAPKLLLYAASSLQSGVPSRFSGSGSGTEFTLTISSLHPEDFATYYCQQSYNTPFTFGPGTKVDIKR
B4: P601-3 (scFv, V domains shown)
VH: QVTLKESGPTLVKPTQTLTLTCTFSGFSLNSFGVAVGWFRQPPGKALEWLGLIYWDDDRRYFPSLEGRLSITKDASDNNVVLTMMNVDPADTATYYCARTSPMVQGIANYYAMDVWGQGTTVTVSS
VL: not shown
B5: P601-5 (scFv, V domains shown)
VH: EVQLVESGGGLVKPGGSLRLSCAASGFTFSDYYMGWVRQAPGKGLKWLSYISDRAHTIYDTDSVKGRFTISRDDAKSSLYLRMNNLRVEDTAVYYCARAVGAGEGFDYWGQGTLVTVSS
VL: not shown
B6: P601-101 (scFv, V domains shown)
VH: EVQLVQSGNEVKRPGASVKVSCKASGHSFSTYGFSWVRQAPGQGLEWMGWISTYNGNTNYAQKLQGRVTMTTDTSTSTAYMELRSLRSDDTAVYYCARDYYSDSSGYWDDAFDIWGQGTLVTVSS
VL: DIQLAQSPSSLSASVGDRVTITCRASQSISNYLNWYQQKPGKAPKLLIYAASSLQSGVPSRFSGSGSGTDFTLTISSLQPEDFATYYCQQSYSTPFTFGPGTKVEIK
B7: P601-112 (scFv, V domains shown)
VH: EVQLVQSGGDLVQPGGSLRLSCAASGFTFSSYSMNWVRQAPGKGLEWVSSISSSSSYIYYADSVKGRFTISRDNAKNSLYLQMNSLRAEDTAVYYCARGLGGWTHDAFDIWGQGTTVTVSS
VL: QSALTQPASVSGSPGQSITISCTGTSSDVGGYNYVSWYQQHPGKAPKLMIYDVSKRPSGVSNRFSGSKSGNTASLTISGLQAEDEADYYCSSYTGRSTVFGGGTKLTVL
B8: P601-109 (scFv, V domains shown)
VH: B7 VH with E1Q, V2M
VL: QSALTQPASVSGSPGQSITISCTGTSSDVGGYNYVSWYQQHPGKAPKLLIYEVSQRPSGVPDRFSGSKSGNTASLTVSGLQAEDEADYYCSSYAGDRDVFGTGTQLTVLS
B9: P601-100 (scFv, V domains shown)
VH: B7 VH with D10G, L11V, S17P, T116M
VL: QSALTQPASVSGSPGQSITISCTGTSRDVGGYDYVSWYQQYPGNAPKLMIYDVSRRPSGVSHRFSASKSGNTASLTISGLQTEDEADYYCSSYTSSSTRVFGGGTKVTVL
B10: P601-120 (scFv, V domains shown)
VH: B7 VH
VL: B9 VL with R27S, D33N, Y41H, N44K, R55N, H62N, A66G, T82A, V107L
B11: P601-110 (scFv, V domains shown)
VH: B7 VH with E1Q
VL: QSALTQPASVSGSPGQSITLSCTGTSSDVGGYNYVSWYQQHPGNGPKLIIYDVTKRPSGVSNRFSGSKSGNTAYLTISGLQAEDEADYYCASYTRSTTLVFGGGTKLTVL
B12: P601-103 (scFv, V domains shown)
VH: B7 VH
VL: QSVLTQPASVSGSPGQSITISCTGTTSDVGGYNYVSWYQQHPGKAPKLMIYDVSKRPSGVSNRFSGSKSGNTASLTISGLQAEDEADYYCSSYTSSSTDVFGTGTKLTVL
B13: P601-137 (scFv, V domains shown)
VH: QVQLQQSGAEVKKPGASVKVSCKASGYTFSRYYIHWVRQAPGQGLEWMGIINTDGGTTTYAQKFQGRLTMTRDTSTSTVYMELSSLRSDDTAVYYCARDYGTIDARRFDYWGQGTLVTVSS
VL: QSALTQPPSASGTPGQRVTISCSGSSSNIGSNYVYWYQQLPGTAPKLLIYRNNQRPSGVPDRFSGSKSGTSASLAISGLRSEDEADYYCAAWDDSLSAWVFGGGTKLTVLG
B14: P601-136 (scFv, V domains shown)
VH: B13 VH with Q5V, I50L, T53P, D54G, T57S, T59N, L68V, S77N, M81L, Y110F
VL: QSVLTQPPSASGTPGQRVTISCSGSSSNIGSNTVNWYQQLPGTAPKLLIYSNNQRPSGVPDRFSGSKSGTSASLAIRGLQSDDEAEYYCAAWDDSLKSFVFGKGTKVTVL
B15: P601-13 (scFv, V domains shown)
VH: EVQLVQSGAEVKKPGSSVKVSCKASGGTFSTFAINWVRQAPGQGLEWMGGVIPVSGTEDYSQKFQGRLSLTADESTGTAYMELSSLRSDDTAVYYCARDRSGRDWDYFDYWGQGTLVTVSS
VL: DIVMTQSPSSLSASVGDRVTITCQASQDISNYLNWYQQKPGKAPKLLIYDASNLETGVPSRFSGSGSGTDFIFTISSLQPEDIATYYCQQFDNLPYTFGQGTKVEIKR
B16: P601-87 (scFv, V domains shown)
VH: QVQLQESGPGLVKSSETLSLTCTVSGGSMNNYYWSWIRQPAGKGLEWMGRIYSSGSTNYNPALKSRVTMSVDTSKNQFSLNLSSVTAADTAIYYCARASWSGTYWALFDYWGQGTLVTVSS
VL: ETTLTQSPAFMSATPGDKVNISCKASQDIDDDLNWYQQKPGEAPILIIQEATTLVPGIPPRFSGSGFGTDFTLTINSMQSEDVAYYFCLQHDNFPPTFGQGTKVEIK
B17: P601-2 (scFv, V domains shown)
VH: QVTLKESGPTLVKPTQTLTLTCTFSGFSLSSFGVAVGWFRQPPGKALEWLGLIYWDDDKRYSPSLKTRLTITKDTSKNQVVLTMTNMDPVDTATYYCAHKGGIATTGSPNWFDPWGQGTLVTVSS
VL: not shown
B18: P601-81 (scFv, V domains shown)
VH: EVQLVESGGGVVRPGGSLRLSCATSGFNFDNYGLSWVRQGPGKGLEWMGFIYKSVNTNYSPSLKSRLTISMDTSKNQFSLNLASVTTADTAIYYCARGKVETSVVDYWGQGTLVTVSS
VL: NFMLTQPRSVSESPGKTVTISCTGNGGRVANNYVQWYQQRPGSAPTTVIYEDNQRPSGVPARFSGSIDSSSNSASLTISGLKTDDEADYYCQSYDISNQRVFGGGTKLTVL
B19: P601-86 (scFv, V domains shown)
VH: QVTLKESGPTLLKPTQTLTLTCTFSGFSLSTRGVGVGWIRQPPGQALEWLTLIYWDDDKRYSPSLKSRLTITKDTSKNQVVLTMTNMESVDTATYYCAQQTMTGAFDIWGQGTTVTVSS
VL: DIQMTQSPSSVSASVGDRVTITCRASQGISTLLAWYQQKPGKAPKLLISSASSLQSGVPARFSGSGSGTDFTLTISSLQPEDFATYYCQQSYRAPTFGQGTKVEIKR
B20: P601-66 (scFv, V domains shown)
VH: QVQLVQSGAEVKEPGASVKVSCKASGYTFRNSGITWVRQAPGQGLEWMGWINPNSGGAMYVDNFQGRATMTRDTSINTAYMELRSLSSDDTAVYYCARGMADLIDVFDIWGQGTLVTVSS
VL: TQPALTQPASVSGSPGQSITISCTGTSSDFGDYDYVSWYQQHPGKAPKLMIYDVSDRPSGVSNRFSGSKSGNTASLTISGLQAEDEADYFCSSFTTSSTLVFGGGTKLTVL
B21: P601-6 (scFv, V domains shown)
VH: B5 VH with R19K, D62H, G110C
VL: DIQMTQSPSSLSASVGDRVTITCQASQDIRNYLNWYQQKPGKAPKLLIYAASNLETGVPSRFSGSGSGTDFTFTISSLQPEDIATYYCQQDDNLPLTFGGGTKLEIK
B22: P601-149 (scFv, V domains shown, not shown: large carriers; small tags and cut ends)
VH: B5 VH with V2A
VL: B21 VL with M4L, I29V, K45N, A50D, S52T, T56S, I83F, D91Y, T97S, L104V
B23: P601-153 (scFv, V domains shown, not shown: large carriers; small tags and cut ends)
VH: QMQLVQSGAEVKKPGASVKVSCKASGYTFTSYYMHWVRQAPGQGLEWMGIINPSGGSTSYAQKFQGRVTMTRDTSTSTVYMELSSLRSEDTAVYYCARGGYTGWSPSDPWGQGTLVTVSS
VL: B12 VL with V3A, T26S, L48F, S91G, Y93F, S97I, D99Y, L107V

These binders were tested against T1, human ROR2-ECD (human, UniProt Q01974 34-403) (assay: protein ELISA, phage).
T1 construct: extracellular domain; also called hROR2
T1 sequence (Q01974 34-403): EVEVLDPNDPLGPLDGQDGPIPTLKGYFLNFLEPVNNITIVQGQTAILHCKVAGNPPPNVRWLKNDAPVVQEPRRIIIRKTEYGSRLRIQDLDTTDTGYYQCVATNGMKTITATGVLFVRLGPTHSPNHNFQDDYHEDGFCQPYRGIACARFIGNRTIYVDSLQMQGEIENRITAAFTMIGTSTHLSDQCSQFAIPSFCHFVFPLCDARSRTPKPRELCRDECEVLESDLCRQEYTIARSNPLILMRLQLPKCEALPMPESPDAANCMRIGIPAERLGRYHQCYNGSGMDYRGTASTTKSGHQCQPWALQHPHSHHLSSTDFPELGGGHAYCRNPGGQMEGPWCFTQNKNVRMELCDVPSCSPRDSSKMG

| Binder | binding result |
| --- | --- |
| B1 | no binding |
| B2 | no binding |
| B3 | no binding |
| B4 | no binding |
| B5 | no binding |
| B6 | no binding |
| B7 | no binding |
| B8 | no binding |
| B9 | no binding |
| B10 | no binding |
| B11 | no binding |
| B12 | no binding |
| B13 | no binding |
| B14 | no binding |
| B15 | no binding |
| B16 | no binding |
| B17 | no binding |
| B18 | no binding |
| B19 | no binding |

These binders were tested against T2, human ROR1 extracellular domain (ECD) protein (human, UniProt Q01973 30-406) (assay: competitive phage ELISA: soluble ROR1 against ROR1-coated plate).
T2 construct: also called hROR1-ECD; human ROR1-ECD
T2 sequence (Q01973 30-406 limits assumed): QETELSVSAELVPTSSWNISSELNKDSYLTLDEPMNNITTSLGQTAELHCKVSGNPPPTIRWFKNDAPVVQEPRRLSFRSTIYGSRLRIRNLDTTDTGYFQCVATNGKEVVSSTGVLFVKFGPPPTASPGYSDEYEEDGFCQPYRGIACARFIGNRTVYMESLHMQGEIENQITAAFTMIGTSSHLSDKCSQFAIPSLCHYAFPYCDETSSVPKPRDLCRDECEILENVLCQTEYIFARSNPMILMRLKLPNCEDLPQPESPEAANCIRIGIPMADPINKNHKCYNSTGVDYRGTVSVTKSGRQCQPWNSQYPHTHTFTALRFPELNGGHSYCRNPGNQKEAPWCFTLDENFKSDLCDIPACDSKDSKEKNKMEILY
Method: Purified phage antibodies were first diluted serially in PBST buffer, and tested for binding to a ROR1-coated plate. The dilution that gave 50-80% saturating signal was used in the solution binding assay in which phage were first incubated with increasing concentration of ROR1 for one to two hours, and then transferred to a ROR1-coated plate for 10-15 minutes to capture the unbound phage.

| Binder | IC50 |
| --- | --- |
| B1 | 3.08 nM |
| B2 | 4.23 nM |
| B20 | 4.05 nM |
| B3 | 0.2 nM |
| B21 | 2.12 nM |
| B22 | 2.76 nM |
| B6 | 1.5 nM |
| B7 | 2.89 nM |
| B8 | 0.22 nM |
| B9 | 5.8 nM |
| B10 | 1.92 nM |
| B11 | 4.57 nM |
| B12 | 8.72 nM |
| B23 | 1.53 nM |
| B13 | 1.82 nM |
| B14 | 3.02 nM |
| B15 | 1.21 nM |
| B16 | 3.86 nM |
| B18 | 2.76 nM |
| B19 | 1.84 nM |
